One substance from PMC11292656 can be followed below.

The test deals with sVP40Δ43 R214A (Sudan virus) (UniProt Q5XX06). Put plainly: SEC. (In gel filtration, larger molecules generally elute earlier.)

In turn, “sVP40Δ43 R214A (from UniProt Q5XX06 44-326) (domain or fragment)” showed an octameric percentage of total VP40 AUC of 50%.
